Data published in publication PMC5668364, “Structure and functional dynamics of the mitochondrial Fe/S cluster synthesis complex” (Nature Communications, 2017).
Read-outs that look alike come from different tables or passages of the source.

B2: Chaetomium thermophilum CtNfs1 (enzyme)
chain: MANLAPSVLRQASRLATRSSSSTSSLFAAAPRRAATLLSRRAAIAPATHAHPSRRASRSYVTDTKADNAQAQTEAAVRLDSQELEKAEKSVPSFEAQNGSTTHVSPMADILKGATRMGEGQRPIYLDMQATTPVDPRVLDAMLPYYVGIFGNPHSRTHAYGWETERAVEKAREHIAALIGADPKEIIFTSGATESNNMSIKGVARFFGRTGKKRHIITSQTEHKCVLDSCRHLQDEGYEVTYLPVNNKGLINLDELRDAIRPDTALVSIMAVNNEIGVIQPIAEIGKICREKKVFFHTDGAQAVGKIPIDVNAMNIDLMSISSHKIYGPKGIGACYVRRRPRVRIEPIISGGGQERGLRSGTLAPALVVGFGEACRIAKEELEYDLKHVKRLSERLLKGVLSIECTHQNGDPENGYPGCVNVSFAYVEGESLLMALNDVALSSGSACTSASLEPSYVLRALGNSDENAHSSIRFGIGRFTTEAEIDYVVKAVQDRVGFLRELSPLWELVQEGVDLNTIEWTQH

Legend:
[1] = molecular target: human NFS1 of the NFS1-ISD11(-His10) complex for biochemistry and SAXS (human); test: SAXS; (NIA)2 complexes incubated with cysteine (buffer S1 with 5 mM Cys: 35 mM Tris-HCl pH 7.4, 150 mM NaCl), after size exclusion chromatography
[2] = molecular target: B2; test: SAXS; complexes of NFS1 with ISCU, FDX2 (reduced with dithionite) and/or frataxin mixed in 1:1, 1:1:1 ratios in buffer S1 in an anaerobic chamber, after size exclusion chromatography; rigid body modelling
[3] = molecular target: T1, human ISD11, full length, no tag (human, UniProt Q9HD34 1-91); test: crystal structure; (NIA)2 complex, 2.75 Å, space group R32; crystals from 100 mM MES pH 6.5, 0.3 M ammonium acetate, 20 mM calcium acetate, 20 mM CaCl2, 19% isopropanol, 12 °C; conditions: both partners purified
T1 construct: human ISD11 (LYRM4), full length, plasmid pZM4; also called LYRM4; I of (NIA)2 and (NIAU)2; source: E. coli One Shot BL21 Star (DE3), co-expressed with NFS1, co-purified (Ni-NTA)
T1 sequence (Q9HD34 whole entry): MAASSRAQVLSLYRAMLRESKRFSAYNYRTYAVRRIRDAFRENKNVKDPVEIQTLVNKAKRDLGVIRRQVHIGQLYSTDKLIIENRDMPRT

[4] = molecular target: T2, human ISD11-His10 (human, UniProt Q9HD34 1-91); test: affinity purification with mass spectrometry; NFS1-ISD11(-His10) purified by Ni-Sepharose and gel filtration from E. coli grown in TB (energy-rich) medium; Orbitrap mass spectrometry of the trypsin-digested purified solution; conditions: partners not purified
T2 construct: human ISD11 (LYRM4); source: E. coli, co-expressed with NFS1, purified (Ni-Sepharose, gel filtration)
T2 sequence (Q9HD34 whole entry): as above

[5] = molecular target: the molecule itself; test: SAXS; (NIA)2 complexes incubated with cysteine (buffer S1 with 5 mM Cys: 35 mM Tris-HCl pH 7.4, 150 mM NaCl), after size exclusion chromatography

human NFS1 of the NFS1-ISD11(-His10) complex for biochemistry and SAXS (enzyme)
stoichiometry N [1]: 2

Chaetomium thermophilum CtFdx2 (reduced ferredoxin) (natural protein)
stoichiometry N [2]: 1

B1: E. coli acyl carrier protein (ACP) (natural protein, UniProt P0A6A8 1-78, looked up)
chain: MSTIEERVKKIIGEQLGVKQEEVTNNASFVEDLGADSLDTVELVMALEEEFDTEIPDEEAEKITTVQAAIDYINGHQA
modifications: Ser36-linked phosphopantetheine with attached fatty acyl chain (12 carbons modelled; 14 carbons by mass spectrometry of dissolved crystals)
notes: E. coli acyl carrier protein; the acyl chain length is said to depend on the growth medium; also called E. coli ACP; A of (NIA)2; source: endogenous E. coli protein, co-purified with NFS1-ISD11 expressed in E. coli
binding result [3]: binds | binding result [4]: binds

B2
stoichiometry N [5]: 2

B3: Chaetomium thermophilum CtIsu1-His6 (natural protein)
chain: MFSKTARAVSSRALASPLWSTAIPVTRPLSCQLAWPQTRQYHEKVLDHYSRPRNVGSLDKTDKSVGEGLVGAPACGDVMRLHIKVDPETKVISDVRFKTFGCGSAIASSSYLTELVRGMTLEQAAQVKNTQIAKELCLPPVKLHCSMLAEDAIKSAINNYYKKNPEARPTNLAGRGNNKLETASQSTQ
stoichiometry N ([2]; both partners purified): 1
